# From patent publication US20050037969A1 (ARBOR VITA, published 2005)
# Ends that are not written are not given here. * marks the point of attachment. Biotin = O=C1N[C@H]2[C@H](CS[C@H]2CCCCC(=O)*)N1
# T1: GST-cytohesin binding protein PDZ domain fusion protein (Homo sapiens (Human), UniProt O60759 74-165)
# T1 construct: also called CBP; not shown: glutathione S-transferase encoded by vector pGEX-3X (Pharmacia)
# T1 sequence: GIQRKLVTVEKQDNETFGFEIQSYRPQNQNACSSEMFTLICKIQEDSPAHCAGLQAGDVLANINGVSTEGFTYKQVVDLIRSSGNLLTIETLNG
# T2: GST-TAX-IP2 PDZ domain fusion protein (human, UniProt O14908 129-216)
# T2 construct: also called TAX-1P2; TAX2; not shown: glutathione S-transferase encoded by vector pGEX-3X (Pharmacia)
# T2 chain: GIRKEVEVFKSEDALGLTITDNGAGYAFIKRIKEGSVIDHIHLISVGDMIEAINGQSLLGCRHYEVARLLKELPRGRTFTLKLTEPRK
# T3: GST-PTN-4 PDZ domain fusion protein (Homo sapiens (Human), UniProt P29074 517-605)
# T3 construct: also called protein-tyrosine phosphatase meg1; not shown: glutathione S-transferase encoded by vector pGEX-3X (Pharmacia)
# T3 sequence: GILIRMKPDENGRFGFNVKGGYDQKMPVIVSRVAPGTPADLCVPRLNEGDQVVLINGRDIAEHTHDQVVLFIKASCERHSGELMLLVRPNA
# T4: SP short PDZ-GST fusion protein (Homo sapiens (Human), UniProt O43464 350-435)
# T4 construct: The label SP short is not explained in the excerpts
# T4 sequence: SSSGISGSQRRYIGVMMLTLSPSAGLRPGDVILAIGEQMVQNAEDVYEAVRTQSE
# T5: K858 PDZ-GST fusion protein (Homo sapiens (Human), UniProt Q8WWI1 1038-1131)
# T5 construct: Order of GST and PDZ part and limits not seen in the excerpts
# T5 sequence: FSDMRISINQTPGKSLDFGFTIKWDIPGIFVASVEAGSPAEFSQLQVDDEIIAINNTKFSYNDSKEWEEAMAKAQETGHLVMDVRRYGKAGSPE
# T6: GST-MPP1 PDZ domain fusion protein (Homo sapiens (Human), UniProt Q00013 67-152)
# T6 construct: also called p55; 55 Kd erythrocyte membrane protein; not shown: glutathione S-transferase encoded by vector pGEX-3X (Pharmacia)
# T6 sequence: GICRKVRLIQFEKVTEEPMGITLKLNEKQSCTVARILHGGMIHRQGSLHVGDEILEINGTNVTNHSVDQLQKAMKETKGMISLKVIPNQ
# T7: GST-AF6 PDZ domain fusion protein (Homo sapiens (Human), UniProt P55196 1001-1093)
# T7 construct: also called af-6 protein; not shown: glutathione S-transferase encoded by vector pGEX-3X (Pharmacia)
# T7 sequence: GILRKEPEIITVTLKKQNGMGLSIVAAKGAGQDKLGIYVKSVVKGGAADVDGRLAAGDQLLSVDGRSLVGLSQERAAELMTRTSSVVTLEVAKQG
# T8: GST-prIL16 fusion protein (PDZ domains 1-2) (Homo sapiens (Human), UniProt Q14005 1111-1324)
# T8 construct: also called putative interleukin 16 precursor; not shown: glutathione S-transferase encoded by vector pGEX-3X (Pharmacia)
# T8 sequence: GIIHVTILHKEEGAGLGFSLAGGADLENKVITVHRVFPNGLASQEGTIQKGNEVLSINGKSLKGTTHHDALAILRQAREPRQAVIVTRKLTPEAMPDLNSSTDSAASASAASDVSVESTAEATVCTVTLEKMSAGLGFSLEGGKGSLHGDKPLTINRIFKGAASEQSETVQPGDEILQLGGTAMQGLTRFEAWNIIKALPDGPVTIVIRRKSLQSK
# T9: GST-RGS12 PDZ domain fusion protein (human, UniProt O14924 17-85)
# T9 construct: also called human regulator of G-protein signalling 12; not shown: glutathione S-transferase encoded by vector pGEX-3X (Pharmacia)
# T9 sequence: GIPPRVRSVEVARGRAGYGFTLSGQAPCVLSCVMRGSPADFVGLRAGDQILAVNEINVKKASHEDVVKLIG
# T10: GST-TAX-IP40 PDZ domain fusion protein (human, UniProt Q6B4M5 150-252 (rat entry))
# T10 construct: also called TAX40; not shown: glutathione S-transferase encoded by vector pGEX-3X (Pharmacia)
# T10 sequence: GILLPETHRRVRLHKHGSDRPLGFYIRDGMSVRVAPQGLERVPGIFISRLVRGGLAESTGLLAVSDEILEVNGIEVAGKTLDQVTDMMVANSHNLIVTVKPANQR
# T11: GST-KIAA0303 PDZ domain fusion protein (Homo sapiens (Human), UniProt O15021 1138-1228)
# T11 construct: also called K303; not shown: glutathione S-transferase encoded by vector pGEX-3X (Pharmacia)
# T11 sequence: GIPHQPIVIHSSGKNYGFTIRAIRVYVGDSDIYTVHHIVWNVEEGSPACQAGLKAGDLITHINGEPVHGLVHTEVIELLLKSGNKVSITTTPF
# T12: ConEn PDZ-GST fusion protein (Homo sapiens (Human), UniProt Q969H4 193-287)
# T12 construct: The label ConEn is not explained in the excerpts
# T12 sequence: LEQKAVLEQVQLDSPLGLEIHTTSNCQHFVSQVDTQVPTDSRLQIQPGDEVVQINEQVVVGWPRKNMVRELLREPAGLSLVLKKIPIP
# B1: BLR-1 C-terminal peptide AA45L, biotinylated (peptide)
# peptide: Biotin-PSWRRSSLSESENATSLTTF
# notes: also called CXCR5
# B2: CD49E C-terminal peptide AA11L, biotinylated (peptide)
# peptide: Biotin-PYGTAMEKAQLKPPATSDA
# notes: also called CD49E (alpha-4)
# Molecular target: T13, PICK1 PDZ-GST fusion protein (Bos taurus (Bovine), UniProt Q2T9M1 17-105)
# T13 construct: Order of GST and PDZ part and limits not seen in the excerpts
# T13 sequence (Q2T9M1 other isoform, or with tags, fused parts or gaps limits assumed): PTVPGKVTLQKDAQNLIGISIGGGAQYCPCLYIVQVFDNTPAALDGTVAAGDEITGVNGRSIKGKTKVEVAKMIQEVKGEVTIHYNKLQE
# Assay: A/G assays
row,Binder,binding result
1,B1,no binding
2,B2,no binding

# Molecular target: T1, GST-cytohesin binding protein PDZ …
# Assay: A/G assays
row,Binder,binding result
1,B1,no binding
2,B2,no binding

# Molecular target: T2, GST-TAX-IP2 PDZ domain fusion protein
# Assay: A/G assays
row,Binder,binding result
1,B1,no binding
2,B2,no binding

# Molecular target: T3, GST-PTN-4 PDZ domain fusion protein
# Assay: A/G assays
row,Binder,binding result
1,B1,no binding
2,B2,no binding

# Molecular target: T14, NSP PDZ-GST fusion protein (Homo sapiens (Human), UniProt Q92743 370-466)
# T14 construct: The label NSP is not explained in the excerpts
# T14 sequence (Q92743 other isoform, or with tags, fused parts or gaps limits assumed): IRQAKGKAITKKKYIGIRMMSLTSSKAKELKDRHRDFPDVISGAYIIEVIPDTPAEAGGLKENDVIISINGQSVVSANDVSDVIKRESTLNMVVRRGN
# Assay: A/G assays
row,Binder,binding result
1,B1,no binding
2,B2,no binding

# Molecular target: T4, SP short PDZ-GST fusion protein
# Assay: A/G assays
row,Binder,binding result
1,B1,no binding
2,B2,no binding

# Molecular target: T15, NOS1 PDZ-GST fusion protein (Homo sapiens (Human), UniProt P29475 11-100)
# T15 construct: Order of GST and PDZ part and limits not seen in the excerpts
# T15 sequence (P29475 11-100 limits assumed): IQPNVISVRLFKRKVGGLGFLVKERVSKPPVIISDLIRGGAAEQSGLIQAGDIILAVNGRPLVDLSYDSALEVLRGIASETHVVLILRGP
# Assay: A/G assays
row,Binder,binding result
1,B1,no binding
2,B2,no binding

# Molecular target: T5, K858 PDZ-GST fusion protein
# Assay: A/G assays
row,Binder,binding result
1,B1,no binding
2,B2,no binding

# Molecular target: T6, GST-MPP1 PDZ domain fusion protein
# Assay: A/G assays
row,Binder,binding result
1,B1,no binding
2,B2,no binding

# Molecular target: T7, GST-AF6 PDZ domain fusion protein
# Assay: A/G assays
row,Binder,binding result
1,B1,no binding
2,B2,no binding

# Molecular target: T8, GST-prIL16 fusion protein (PDZ domains …)
# Assay: A/G assays
row,Binder,binding result
1,B1,no binding
2,B2,no binding

# Molecular target: T9, GST-RGS12 PDZ domain fusion protein
# Assay: A/G assays
row,Binder,binding result
1,B1,no binding
2,B2,no binding

# Molecular target: T10, GST-TAX-IP40 PDZ domain fusion protein
# Assay: A/G assays
row,Binder,binding result
1,B1,no binding
2,B2,no binding

# Molecular target: T11, GST-KIAA0303 PDZ domain fusion protein
# Assay: A/G assays
row,Binder,binding result
1,B1,no binding
2,B2,no binding

# Molecular target: T16, GST-TIAM1 PDZ domain fusion protein (Homo sapiens (Human), UniProt Q13009 845-931)
# T16 construct: also called TLAM1; T-lymphoma invasion and metastasis inducing protein 1; not shown: glutathione S-transferase encoded by vector pGEX-3X (Pharmacia)
# T16 sequence (Q13009 other isoform, or with tags, fused parts or gaps): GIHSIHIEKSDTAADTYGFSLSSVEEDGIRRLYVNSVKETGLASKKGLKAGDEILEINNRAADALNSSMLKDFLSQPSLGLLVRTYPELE
# Assay: A/G assays
row,Binder,binding result
1,B1,no binding
2,B2,no binding

# Molecular target: T12, ConEn PDZ-GST fusion protein
# Assay: A/G assays
row,Binder,binding result
1,B1,no binding
2,B2,no binding
